Tests used:
[1] = target: … (SEQ ID NO: 1)-HLA-A*02 complex (human); assay: SPR (BIAcore) or BLI (Octet) per Example 3, immobilised biotinylated pHLA, 25 C
[2] = target: … (SEQ ID NO: 1)-HLA-A*02 complex (human); assay: cell-based or functional assay

| Binder | Kd [1] | t1/2 [1] | EC50 (mel624), IFN-γ ELISPOT, T cell activation [2] |
| --- | --- | --- | --- |
| ImmTAC molecule a79b64 (TCR-anti-CD3 fusion) (TCR, part only; not given: anti-CD3 scFv, linker, constant regions, not shown: a dimerising Fc or GST) TCR alpha, part: GDAKTTQPNSMESNEEEPVHLPCNHSTISGTDYIHWYRQLPSQGPEYVIHGLTSNVNNRMASLAIAEDRKSSTLILHRATLRDAAVYYCILILGHSRLGNYIATFGKGTKLSVIP TCR beta, part: DGGITQSPKYLFRKEGQNVTLSCEQNLNHDAMYWYRQDPGQGLRLIYYSQIMNDEQKGDIAEGYSVSREKKESFPLTVTSAQKNPTAFYLCASSWWTGGSAPIRFGPGTRLTVT | 0.138 nM | 6.38 h | 0.0275 nM |
| ImmTAC molecule a79b67 (TCR-anti-CD3 fusion) (TCR, part only; not given: anti-CD3 scFv, linker, constant regions, not shown: a dimerising Fc or GST) TCR alpha, part: GDAKTTQPNSMESNEEEPVHLPCNHSTISGTDYIHWYRQLPSQGPEYVIHGLTSNVNNRMASLAIAEDRKSSTLILHRATLRDAAVYYCILILGHSRLGNYIATFGKGTKLSVIP TCR beta, part: DGGITQSPKYLFRKEGQNVTLSCEQNLNHDAMYWYRQDPGQGLRLIYYSQIMGDEQKGDIAEGYSVSREKKESFPLTVTSAQKNPTAFYLCASSWWTSGSAPIRFGPGTRLTVT | 0.047 nM | 12.7 h | 0.0263 nM |
| ImmTAC molecule a28b75 (TCR-anti-CD3 fusion) (TCR, part only; not given: TCR constant regions and anti-CD3 scFv, not shown: a dimerising Fc or GST) TCR alpha, part: GDAKTTQPNSMESNEEEPVHLPCNHSTISGTDYIHWYRQLPSQGPEYVIHGLTSNVNNRMASLAIAEDRKSSTLILHRATLRDAAVYYCILILGHSRAGNYIATFGKGTKLSVIP TCR beta, part: DGGITQSPKYLFRKEGQNVTLSCEQNLNHDAMYWYRQDPGQGLRLIYYSQIMGDEQKGDIAEGYSVSREKKESFPLTVTSAQKNPTAFYLCASSWWTGGSAPISFGPGTRLTVT | 0.214 nM | 5.1 h | 0.0139 nM |
| ImmTAC molecule a28b74 (TCR-anti-CD3 fusion) (TCR, part only; not given: anti-CD3 scFv, linker, constant regions, not shown: a dimerising Fc or GST) TCR alpha, part: GDAKTTQPNSMESNEEEPVHLPCNHSTISGTDYIHWYRQLPSQGPEYVIHGLTSNVNNRMASLAIAEDRKSSTLILHRATLRDAAVYYCILILGHSRAGNYIATFGKGTKLSVIP TCR beta, part: DGGITQSPKYLFRKEGQNVTLSCEQNLNHDAMYWYRQDPGQGLRLIYYSQIMGDEQKGDIAEGYSVSREKKESFPLTVTSAQKNPTAFYLCASSWWTGGASPIRFGPGTRLTVT | 0.182 nM | 3.7 h | 0.0243 nM |
| ImmTAC molecule a28b57 (TCR-anti-CD3 fusion) (TCR, part only; not given: anti-CD3 scFv, linker, constant regions, not shown: a dimerising Fc or GST) TCR alpha, part: GDAKTTQPNSMESNEEEPVHLPCNHSTISGTDYIHWYRQLPSQGPEYVIHGLTSNVNNRMASLAIAEDRKSSTLILHRATLRDAAVYYCILILGHSRAGNYIATFGKGTKLSVIP TCR beta, part: DGGITQSPKYLFRKEGQNVTLSCEQNLNHDAMYWYRQDPGQGLRLIYYSQIMGDEQKGDIAEGYSVSREKKESFPLTVTSAQKNPTAFYLCASSWWTSGASPISFGPGTRLTVT | 0.083 nM | 8.3 h | 0.0134 nM |
| ImmTAC molecule a28b60 (TCR-anti-CD3 fusion) (TCR, part only; not given: anti-CD3 scFv, linker, constant regions, not shown: a dimerising Fc or GST) TCR alpha, part: GDAKTTQPNSMESNEEEPVHLPCNHSTISGTDYIHWYRQLPSQGPEYVIHGLTSNVNNRMASLAIAEDRKSSTLILHRATLRDAAVYYCILILGHSRAGNYIATFGKGTKLSVIP TCR beta, part: DGGITQSPKYLFRKEGQNVTLSCEQNLNHDAMYWYRQDPGQGLRLIYYSQIMGDEQKGDIAEGYSVSREKKESFPLTVTSAQKNPTAFYLCASSWWTGGASEISFGPGTRLTVT | 0.261 nM | 2.8 h | 0.0317 nM |
| ImmTAC molecule a28b58 (TCR-anti-CD3 fusion) (TCR, part only; not given: anti-CD3 scFv, linker, constant regions, not shown: a dimerising Fc or GST) TCR alpha, part: GDAKTTQPNSMESNEEEPVHLPCNHSTISGTDYIHWYRQLPSQGPEYVIHGLTSNVNNRMASLAIAEDRKSSTLILHRATLRDAAVYYCILILGHSRAGNYIATFGKGTKLSVIP TCR beta, part: DGGITQSPKYLFRKEGQNVTLSCEQNLNHDAMYWYRQDPGQGLRLIYYSQIMGDEQKGDIAEGYSVSREKKESFPLTVTSAQKNPTAFYLCASSWWTGGSSPISFGPGTRLTVT | 0.079 nM | 8.9 h | 0.012 nM |
| ImmTAC molecule a79b58 (TCR-anti-CD3 fusion) (TCR, part only; not given: anti-CD3 scFv, linker, constant regions, not shown: a dimerising Fc or GST) TCR alpha, part: GDAKTTQPNSMESNEEEPVHLPCNHSTISGTDYIHWYRQLPSQGPEYVIHGLTSNVNNRMASLAIAEDRKSSTLILHRATLRDAAVYYCILILGHSRLGNYIATFGKGTKLSVIP TCR beta, part: DGGITQSPKYLFRKEGQNVTLSCEQNLNHDAMYWYRQDPGQGLRLIYYSQIMGDEQKGDIAEGYSVSREKKESFPLTVTSAQKNPTAFYLCASSWWTGGSSPISFGPGTRLTVT | 0.0231 nM | 28.7 h | 0.0106 nM |
| ImmTAC molecule a79b66 (TCR-anti-CD3 fusion) (TCR, part only; not given: anti-CD3 scFv, linker, constant regions, not shown: a dimerising Fc or GST) TCR alpha, part: GDAKTTQPNSMESNEEEPVHLPCNHSTISGTDYIHWYRQLPSQGPEYVIHGLTSNVNNRMASLAIAEDRKSSTLILHRATLRDAAVYYCILILGHSRLGNYIATFGKGTKLSVIP TCR beta, part: DGGITQSPKYLFRKEGQNVTLSCEQNLNHDAMYWYRQDPGQGLRLIYYSQIMGDEQKGDIAEGYSVSREKKESFPLTVTSAQKNPTAFYLCASSPWTGGSAPIRFGPGTRLTVT | 0.089 nM | 9.16 h | 0.0167 nM |
| ImmTAC molecule a79b63 (TCR-anti-CD3 fusion) (TCR, part only; not given: anti-CD3 scFv, linker, constant regions, not shown: a dimerising Fc or GST) TCR alpha, part: GDAKTTQPNSMESNEEEPVHLPCNHSTISGTDYIHWYRQLPSQGPEYVIHGLTSNVNNRMASLAIAEDRKSSTLILHRATLRDAAVYYCILILGHSRLGNYIATFGKGTKLSVIP TCR beta, part: DGGITQSPKYLFRKEGQNVTLSCEQNLNHDAMYWYRQDPGQGLRLIYYSQIVGDEQKGDIAEGYSVSREKKESFPLTVTSAQKNPTAFYLCASSWWTGGSAPIRFGPGTRLTVT | 0.079 nM | 10.8 h | 0.0229 nM |

Now from value to binder:

| Kd [1] | t1/2 [1] | EC50 (mel624), IFN-γ ELISPOT, T cell activation [2] | Binder |
| --- | --- | --- | --- |
| 0.0577 nM | 16.9 h | 0.0236 nM | ImmTAC molecule a79b75 (TCR-anti-CD3 fusion) (TCR, part only; not given: anti-CD3 scFv, linker, constant regions, not shown: a dimerising Fc or GST) TCR alpha, part: GDAKTTQPNSMESNEEEPVHLPCNHSTISGTDYIHWYRQLPSQGPEYVIHGLTSNVNNRMASLAIAEDRKSSTLILHRATLRDAAVYYCILILGHSRLGNYIATFGKGTKLSVIP TCR beta, part: DGGITQSPKYLFRKEGQNVTLSCEQNLNHDAMYWYRQDPGQGLRLIYYSQIMGDEQKGDIAEGYSVSREKKESFPLTVTSAQKNPTAFYLCASSWWTGGSAPISFGPGTRLTVT |
| 0.132 nM | 4.6 h | 0.0231 nM | ImmTAC molecule a79b73 (TCR-anti-CD3 fusion) (TCR, part only; not given: anti-CD3 scFv, linker, constant regions, not shown: a dimerising Fc or GST) TCR alpha, part: GDAKTTQPNSMESNEEEPVHLPCNHSTISGTDYIHWYRQLPSQGPEYVIHGLTSNVNNRMASLAIAEDRKSSTLILHRATLRDAAVYYCILILGHSRLGNYIATFGKGTKLSVIP TCR beta, part: DGGITQSPKYLFRKEGQNVTLSCEQNLNHDAMYWYRQDPGQGLRLIYYSQIMGDEQKGDIAEGYSVSREKKESFPLTVTSAQKNPTAFYLCASSWWTGGAAPISFGPGTRLTVT |
| 0.052 nM | 20.4 h | 0.0398 nM | ImmTAC molecule a79b69 (TCR-anti-CD3 fusion) (TCR, part only; not given: anti-CD3 scFv, linker, constant regions, not shown: a dimerising Fc or GST) TCR alpha, part: GDAKTTQPNSMESNEEEPVHLPCNHSTISGTDYIHWYRQLPSQGPEYVIHGLTSNVNNRMASLAIAEDRKSSTLILHRATLRDAAVYYCILILGHSRLGNYIATFGKGTKLSVIP TCR beta, part: DGGITQSPKYLFRKEGQNVTLSCEQNLNHDAMYWYRQDPGQGLRLIYYSQIMGDEQKGDIAEGYSVSREKKESFPLTVTSAQKNPTAFYLCASSWWTGGSAEIRFGPGTRLTVT |
| 0.0779 nM | 8.6 h | 0.0138 nM | ImmTAC molecule a79b77 (TCR-anti-CD3 fusion) (TCR, part only; not given: anti-CD3 scFv, linker, constant regions, not shown: a dimerising Fc or GST) TCR alpha, part: GDAKTTQPNSMESNEEEPVHLPCNHSTISGTDYIHWYRQLPSQGPEYVIHGLTSNVNNRMASLAIAEDRKSSTLILHRATLRDAAVYYCILILGHSRLGNYIATFGKGTKLSVIP TCR beta, part: DGGITQSPKYLFRKEGQNVTLSCEQNLNHDAMYWYRQDPGQGLRLIYYSQIMGDEQKGDIAEGYSVSREKKESFPLTVTSAQKNPTAFYLCASSWWTGGAAPIRFGPGTRLTVT |
| 0.0533 nM | 12.5 h | 0.00955 nM | ImmTAC molecule a79b74 (TCR-anti-CD3 fusion) (TCR, part only; not given: anti-CD3 scFv, linker, constant regions, part only) TCR alpha, part: GDAKTTQPNSMESNEEEPVHLPCNHSTISGTDYIHWYRQLPSQGPEYVIHGLTSNVNNRMASLAIAEDRKSSTLILHRATLRDAAVYYCILILGHSRLGNYIATFGKGTKLSVIP TCR beta, part: DGGITQSPKYLFRKEGQNVTLSCEQNLNHDAMYWYRQDPGQGLRLIYYSQIMGDEQKGDIAEGYSVSREKKESFPLTVTSAQKNPTAFYLCASSWWTGGASPIRFGPGTRLTVT |
| 0.17 nM | 7.31 h | 0.0601 nM | ImmTAC molecule a109b46 (TCR-anti-CD3 fusion) (TCR, part only; not given: anti-CD3 scFv, linker, constant regions, not shown: a dimerising Fc or GST) TCR alpha, part: GDAKTTQPNSMESNEEEPVHLPCNHSTISGTDYIHWYRQLPSQGPEYVIHGLTSNVNNRMASLAIAEDRKSSTLILHRATLRDAAVYYCILILGHSRLGNYQATFGKGTKLSVIP TCR beta, part: DGGITQSPKYLFRKEGQNVTLSCEQNLNHDAMYWYRQDPGQGLRLIYYSQIMGDEQKGDIAEGYSVSREKKESFPLTVTSAQKNPTAFYLCASSWWTGGSAPIRFGPGTRLTVT |
| 0.0118 nM | 58.3 h | 0.0172 nM | ImmTAC molecule a79b76 (TCR-anti-CD3 fusion) (TCR, part only; not given: anti-CD3 scFv, linker, constant regions, not shown: a dimerising Fc or GST) TCR alpha, part: GDAKTTQPNSMESNEEEPVHLPCNHSTISGTDYIHWYRQLPSQGPEYVIHGLTSNVNNRMASLAIAEDRKSSTLILHRATLRDAAVYYCILILGHSRLGNYIATFGKGTKLSVIP TCR beta, part: DGGITQSPKYLFRKEGQNVTLSCEQNLNHDAMYWYRQDPGQGLRLIYYSQIMGDEQKGDIAEGYSVSREKKESFPLTVTSAQKNPTAFYLCASSWWTGGSSPIRFGPGTRLTVT |
| 0.087 nM | 14.9 h | 0.0318 nM | ImmTAC molecule a79b71 (TCR-anti-CD3 fusion) (TCR, part only; not given: anti-CD3 scFv, linker, constant regions, not shown: a dimerising Fc or GST) TCR alpha, part: GDAKTTQPNSMESNEEEPVHLPCNHSTISGTDYIHWYRQLPSQGPEYVIHGLTSNVNNRMASLAIAEDRKSSTLILHRATLRDAAVYYCILILGHSRLGNYIATFGKGTKLSVIP TCR beta, part: DGGITQSPKYLFRKEGQNVTLSCEQNLNHDAMYWYRQDPGQGLRLIYYSQIMGDEQKGDIAEGYSVSREKKESFPLTVTSAQKNPTAFYLCASSWWTGGSAPIYFGPGTRLTVT |

— patent US20230416335A1
